Test results: publication PMC4990313 (ACS Catalysis, 2013)

Biological target: the molecule itself
Assay: crystal structure; sitting drop vapor diffusion at 20 °C, 100 mM KH2PO4/citrate pH 4.0-5.0, PEG 300 35-50%; holo, NADP(H)-soaked (binary) and NADP+ + HMCA-soaked (ternary) crystals; dimer interface analysed with PISA

B1: double bond reductase from Nicotiana tabacum (NtDBR) (enzyme, UniProt Q9SLN8 1-343, looked up)
chain: MAEEVSNKQVILKNYVTGYPKESDMEIKNVTIKLKVPEGSNDVVVKNLYLSCDPYMRSRMRKIEGSYVESFAPGSPITGYGVAKVLESGDPKFQKGDLVWGMTGWEEYSIITPTQTLFKIHDKDVPLSYYTGILGMPGMTAYAGFHEVCSPKKGETVFVSAASGAVGQLVGQFAKMLGCYVVGSAGSKEKVDLLKSKFGFDEAFNYKEEQDLSAALKRYFPDGIDIYFENVGGKMLDAVLVNMKLYGRIAVCGMISQYNLEQTEGVHNLFCLITKRIRMEGFLVFDYYHLYPKYLEMVIPQIKAGKVVYVEDVAHGLESAPTALVGLFSGRNIGKQVVMVSRE
For B1, the “stoichiometry N” value was 2.
